Test results published in the supplement of paper PMC11908140.

B1: library; numbered along this chain (parent)
chain: MRKPRAAVGSGHRKQAASQEGRQKHAKNNSQAKPSACDGLARQPEEVVLQASVSSYHLFRDVAEVTAFRGSLLSWYDQEKRDLPWRRRAEDEMDLDRRAYAVWVSEVMLQQTQVATVINYYTGWMQKWPTLQDLASASLEEVNQLWAGLGYYSRGRRLQEGARKVVEELGGHMPRTAETLQQLLPGVGRYTAGAIASIAFGQATGVVDGNVARVLCRVRAIGADPSSTLVSQQLWGLAQQLVDPARPGDFNQAAMELGATVCTPQRPLCSQCPVESLCRARQRVEQEQLLASGSLSGSPDVEECAPNTGQCHLCLPPSEPWDQTLGVVNFPRKASRKPPREESSATCVLEQPGALGAQILLVQRPNSGLLAGLWEFPSVTWEPSEQLQRKALLQELQRWAGPLPATHLRHLGEVVHTFSHIKLTYQVYGLALEGQTPVTTVPPGARWLTQEEFHTAAVSTAMKKVFRVYQGQQPGTCMGSKRSQVSSPCSRKKPRMGQQVLDNFFRSHISTDAHSLNSAAQ

Variants of: B1
Assay: 8OG:A repair function score (normalized; synonymous = 0, nonsense = -1) (normalized log-likelihood score); higher = more repair activity (WT-like)
Details: with 8OG:A DNA repair reporter (GFP) in HEK-293 MUTYH KO cells
Method: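 Saturation mutagenesis (NNN codon scan) of the MUTYH cDNA (521-aa nuclear isoform NM_001048174.1 / NP_001041639), stably expressed under doxycycline induction in HEK-293 MUTYH knockout cells. Cells were co-transfected with an 8OG:A-bearing GFP repair reporter plus mCherry and sorted 72 h later into GFP+ and GFP− bins, three replicates per tile. The Rosace log2 enrichment (GFP+ vs GFP−) was converted per tile to a normalized function score with synonymous variants centered at 0 and nonsense variants (codons 1-471) at -1; low-abundance variants were removed.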

| Variant | 8OG:A repair function score |
| --- | --- |
| MRKPRAAVGSGHRKQAASQEGRQKHAKNNSQAKPSACDGLARQPEEVVLQASVSSYHLFRDVAEVTAFRGSLLSWYDQEKRDLPWRRRAEDEMDLDRRAYAVWVSEVMLQQTQVATVINYYTGWMQKWPTLQDLASASLEEVNQLWAGLGYYSRGRRLQEGARKVVEELGGHMPRTAETLQQLLPGVGRYTAGAIASIAFGQATGVVDGNVARVLCRVRAIGADPSSTLVSQQLWGLAQQLVDPARPGDFNQAAMELGATVCTPQRPLCSQCPVESLCRARQRVEQEQLLASGSLSGSPDVEECAPNTGQCHLCLPPSEPWDQTLGVVNFPRKASRKPPREESSATCVLEQPGASGAQILLVQRPNSGLLAGLWEFPSVTWEPSEQLQRKALLQELQRWAGPLPATHLRHLGEVVHTFSHIKLTYQVYGLALEGQTPVTTVPPGARWLTQEEFHTAAVSTAMKKVFRVYQGQQPGTCMGSKRSQVSSPCSRKKPRMGQQVLDNFFRSHISTDAHSLNSAAQ [L355S] | -0.0259 |
| MRKPRAAVGSGHRKQAASQEGRQKHAKNNSQAKPSACDGLARQPEEVVLQASVSSYHLFRDVAEVTAFRGSLLSWYDQEKRDLPWRRRAEDEMDLDRRAYAVWVSEVMLQQTQVATVINYYTGWMQKWPTLQDLASASLEEVNQLWAGLGYYSRGRRLQEGARKVVEELGGHMPRTAETLQQLLPGVGRYTAGMIASIAFGQATGVVDGNVARVLCRVRAIGADPSSTLVSQQLWGLAQQLVDPARPGDFNQAAMELGATVCTPQRPLCSQCPVESLCRARQRVEQEQLLASGSLSGSPDVEECAPNTGQCHLCLPPSEPWDQTLGVVNFPRKASRKPPREESSATCVLEQPGALGAQILLVQRPNSGLLAGLWEFPSVTWEPSEQLQRKALLQELQRWAGPLPATHLRHLGEVVHTFSHIKLTYQVYGLALEGQTPVTTVPPGARWLTQEEFHTAAVSTAMKKVFRVYQGQQPGTCMGSKRSQVSSPCSRKKPRMGQQVLDNFFRSHISTDAHSLNSAAQ [A194M] | -0.32 |
| MRKPRAAVGSGHRKQAASQEGRQKHAKNNSQAKPSACDGLARQPEEVVLQASVSSYHLFRDVAEVTAFRGSLLSWYDQEKRDLPWRRRAEDEMDLDRRAYAVWVSEVMLQQTQVATVINYYTGWMQKWPTLQDLASASLEEVNQLWAGLGYYSRGRRLQEGARKVVEELGGHMPRTAETLQQLLPGVGRYTAGAIASIAFGQATGVVDGNVARVLCRVRAIGADPSSTLVSQQLWGLAQQLVDPARPGDFNQAAMELGATVCTPQRPLCSQCPVESLCRARQRVEQEQLLASGSLSGSPDVEECAPNTGQCHLCLPPSEPWDQNLGVVNFPRKASRKPPREESSATCVLEQPGALGAQILLVQRPNSGLLAGLWEFPSVTWEPSEQLQRKALLQELQRWAGPLPATHLRHLGEVVHTFSHIKLTYQVYGLALEGQTPVTTVPPGARWLTQEEFHTAAVSTAMKKVFRVYQGQQPGTCMGSKRSQVSSPCSRKKPRMGQQVLDNFFRSHISTDAHSLNSAAQ [T324N] | -0.188 |
| MRKPRAAVGSGHRKQAASQEGRQKHAKNNSQAKPSACDGLARQPEEVVLQASVSSYHLFRDVAEVTAFRGSLLSWYDQEKRDLPWRRRAEDEMDLDRRAYAVWVSEVMLQQTQVATVINYYTGWMQKWPTLQDLASASLEEVNQLWAGLGYYSRGRRLQEGARKVVEELGGHMPRTAETLQQLLPGVGRYTAGAIASIAFGQATGVVDGNVARVLCRVRAIGADPSSTLVSQQLWGLAQQLVDPARPGDFNQAAMELGATVCTPQRPLCSQCPVESLCRARQRVEQEQLLASGSLSGSPDVEECAPNTGQCHLCLPPSEPWDQTLGVVNFPRKASRKPPREESSATCVLEQPGALGAQILLVQRPNSGLLAGLWEFPSVTWEPSEQLQRKALLQELQRWAGPLPATHLRHLGEVVHTFSHIKLTYQVYGLALEGQTPVTTVPPGARWLTQEEFHTAAVSTAMKKVDRVYQGQQPGTCMGSKRSQVSSPCSRKKPRMGQQVLDNFFRSHISTDAHSLNSAAQ [F466D] | -0.872 |
| MRKPRAAVGSGHRKQAASQEGRQKHAKNNSQAKPSACDGLARQPEEVVLQASVSSYHLFRDVAEVTAFRGSLLSWYDQEKRDLPWRRRAEDEMDLDRRAYAVWVSEVMLQQTQVATVINYYTGWMQKWPTLQDLASASLEEVNQLWAGLGYYSRGRRLQEGARKVVEELGGHMPRTAETLQQLLPGVGRYTAGAIASIAFGQATGVVDGNVARVLCRVRAIGADPSSTLVSQQLWGLAQQLVDPARPGDFNQAAMELGATVCTPQRPLCSQCPVESLCRAKQRVEQEQLLASGSLSGSPDVEECAPNTGQCHLCLPPSEPWDQTLGVVNFPRKASRKPPREESSATCVLEQPGALGAQILLVQRPNSGLLAGLWEFPSVTWEPSEQLQRKALLQELQRWAGPLPATHLRHLGEVVHTFSHIKLTYQVYGLALEGQTPVTTVPPGARWLTQEEFHTAAVSTAMKKVFRVYQGQQPGTCMGSKRSQVSSPCSRKKPRMGQQVLDNFFRSHISTDAHSLNSAAQ [R281K] | -0.09 |
| MRKPRAAVGSGHRKQAASQEGRQKHAKNNSQAKPSACDGLARQPEEVVLQASVSSYHLFRDVAEVTAFRGSLLSWYDQEKRDLPWRRRAEDEMDLDRRAYAVWVSEVMLQQTQVATVINYYTGWMQKWPTLQDLASASLEEVNQLWAGLGYYSRGRRLQEGARKVVEELGGHMPRTAETLQQLLPGVGRYTAGAIASIAFGQATGVVDGNVARVLCRVRAIGADPSSTLVSQQLWGLAQQLVDPARPGDFNQAAMELGATVCTPQRPLCSQCPVESLCRARQRVEQEQLLASGSLSGSPDVEECAPNTGQCHLCLPPSEPWDQTLGVVNFPRKASRKPPREESSATCVLEQPGALGAQILLVQRPNSGLLAGLWEFPSVTWEPSEQLQRKALLQELQRWAGPLPATHLRHLGEVVHTFSHIKLTYQVYGLALEGQTPVTTVPPGARWLTQEEYHTAAVSTAMKKVFRVYQGQQPGTCMGSKRSQVSSPCSRKKPRMGQQVLDNFFRSHISTDAHSLNSAAQ [F453Y] | -0.106 |
| MRKPRAAVGSGHRKQAASQEGRQKHAKNNSQAKPSACDGLARQPEEVVLQASVSSYHLFRDVAEVTAFRGSLLSWYDQEKRDLPWRRRAEDEMDLDRRAYAVWVSEVMLQQTQVATVINYYTGWMQKWPTLQDLASASLEEVNQLWAGLGYYSRGRRLQEGARKVVEELGGHMPRTAETLQQLLPGVGRYTAGAIASIAFGQATGVVDGNVARVLCRVRAIGADPSSTLVSQQLWGLAQQLVDPARPGDFNQAAMELGATVCTPQRPLCSQCPVESLCRARQRVEQEQLLASGSLSGSPDVEECAPNTGQCHLCLPPSEPWDQTLGVVNFPRKASRTPPREESSATCVLEQPGALGAQILLVQRPNSGLLAGLWEFPSVTWEPSEQLQRKALLQELQRWAGPLPATHLRHLGEVVHTFSHIKLTYQVYGLALEGQTPVTTVPPGARWLTQEEFHTAAVSTAMKKVFRVYQGQQPGTCMGSKRSQVSSPCSRKKPRMGQQVLDNFFRSHISTDAHSLNSAAQ [K337T] | -0.131 |
| MRKPRAAVGSGHRKQAASQEGRQKHAKNNSQAKPSACDGLARQPEEVVLQASVSSYHLFRDVAEVTAFRGSLLSWYDQEKRDLPWRRRAEDEMDLDRRAYAVWVSEVMLQQTQVATVINYYTGWMQKWPTLQDLASASLEEVNQLWAGLGYYSRGRRLQEGARKVVEELGGHMPRTAETLQQLLPGVGRYTAGAIASIEFGQATGVVDGNVARVLCRVRAIGADPSSTLVSQQLWGLAQQLVDPARPGDFNQAAMELGATVCTPQRPLCSQCPVESLCRARQRVEQEQLLASGSLSGSPDVEECAPNTGQCHLCLPPSEPWDQTLGVVNFPRKASRKPPREESSATCVLEQPGALGAQILLVQRPNSGLLAGLWEFPSVTWEPSEQLQRKALLQELQRWAGPLPATHLRHLGEVVHTFSHIKLTYQVYGLALEGQTPVTTVPPGARWLTQEEFHTAAVSTAMKKVFRVYQGQQPGTCMGSKRSQVSSPCSRKKPRMGQQVLDNFFRSHISTDAHSLNSAAQ [A199E] | -1.06 |
| MRKPRAAVGSGHRKQAASQEGRQKHAKNNSQAKPSACDGLARQPEEVVLQASVSSYHLFRDVAEVTAFRGSLLSWYDQEKRDLPWRRRAEDEMDLDRRAYAVWVSEVMLQQTQVATVINYYTGWMQKWPTLQDLASASLEEVNQLWAGLGYYSRGRRLQEGARKVVEELGGHMPRTAETLQQLLPGVGRYTAGAIASIAFGQATGVVDGNVARVLCRVRAIGADPSSTLVSQQLWGLAQQLVDPARPGDFNQAAMELGATVCTPQRPLCSQCPVESLCRARQRVEQEQLLASGSLSGSPDVEECAPNTGQCHLCLPPSEPWDQTLGVVNFPRKASRKPPREESSATCVLEQPGALGAQILLVQRPNSGLLAGLWEFPSVTWEPSEQLQRKALLQELQRWAGPLPATHLRHLGEVVHTFSHIKLTYQVYGLALEGQTPVTTVPPGARWLTQEEFHTAAVSTAMKKVFRVYQGQQPGTCMGSKRSQVSSPCSGKKPRMGQQVLDNFFRSHISTDAHSLNSAAQ [R491G] | 0.00614 |
| MRKPRAAVGSGHRKQAASQEGRQKHAKNNSQAKPSACDGLARQPEEVVLQASVSSYHLFRDVAEVTAFRGSLLSWYDQEKRDLPWRRRAEDEMDLDRRAYAVWVSEVMLQQTQVATVINYYTGWMQKWPTLQDLASASLEEVNQLWAGLGYYSRGRRLQEGARKVVEELGGHMPRTAETLQQLLPGVGRYTAGAIASIAFGQATGVVDGNVARVLCRVRAIGADPSSTLVSQQLWGLAQQLVDPARPGDFNQAAMELGATVCTPQRPLCSQCPVESLCRARQRVEQEQLLASGSLSGSPDVEECAPNTGQCHLCLPPSEPWDQTLGVVNFPRKASRKPPREESSATCVLEQPGALGAQILLVQRPNSGLLAGLWEFPSVTWEPSEQLQRKALLQELQRWAGPLPATHLRHLGEVVHTFSHIKLTYQVYGLALEGQTPVCTVPPGARWLTQEEFHTAAVSTAMKKVFRVYQGQQPGTCMGSKRSQVSSPCSRKKPRMGQQVLDNFFRSHISTDAHSLNSAAQ [T439C] | -0.19 |
| MRKPRAAVGSGHRKQAASQEGRQKHAKNNSQAKPSACDGLARQPEEVVLQASVSSYHLFRDVAEVTAFRGSLLSWYDQEKRDLPWRRRAEDEMDLDRRAYAVWVSEVMLQQTQVATVINYYTGWMQKWPTLQDLASASLEEVNQLWAGLGYYSRGRRLQEGARKVVEELGGHMPRTAETLQQLLPGVGRYTAGAIASIAFGQATGVVDGNVARVLCRVRAIGADPSSTLVSQQLWGLAQQLVDPARPGDFNQAAMELGATVCTPQRPLCSQCPVESLCRARQRVEQEQLLASGSLSGSPDVEECAPNTGQCHLCLPPSEPWDQTLHVVNFPRKASRKPPREESSATCVLEQPGALGAQILLVQRPNSGLLAGLWEFPSVTWEPSEQLQRKALLQELQRWAGPLPATHLRHLGEVVHTFSHIKLTYQVYGLALEGQTPVTTVPPGARWLTQEEFHTAAVSTAMKKVFRVYQGQQPGTCMGSKRSQVSSPCSRKKPRMGQQVLDNFFRSHISTDAHSLNSAAQ [G326H] | -0.203 |
| MRKPRAAVGSGHRKQAASQEGRQKHAKNNSQAKPSACDGLARQPEEVVLQASVSSYHLFRDVAEVTAFRGSLLSWYDQEKRDLPWRRRAEDEMDLDRRAYAVWVSEVMLQQTQVATVINYYTGWMQKWPTLQDLASASLEEVNQLWAGLGYYSRGRRLQEGARKVVEELGGHMPRTAETLQQLLPGVGRYTAGAIASIAFGQATGVVDGNVARVLCRVRAIGADPSSTLVSQQLWGLAQQLVDPARPGDFNQAAMELGATVCTPQRPLCSQCPVEPLCRARQRVEQEQLLASGSLSGSPDVEECAPNTGQCHLCLPPSEPWDQTLGVVNFPRKASRKPPREESSATCVLEQPGALGAQILLVQRPNSGLLAGLWEFPSVTWEPSEQLQRKALLQELQRWAGPLPATHLRHLGEVVHTFSHIKLTYQVYGLALEGQTPVTTVPPGARWLTQEEFHTAAVSTAMKKVFRVYQGQQPGTCMGSKRSQVSSPCSRKKPRMGQQVLDNFFRSHISTDAHSLNSAAQ [S276P] | -0.0133 |
